The results in this text go back to article doi:10.1101/2020.05.01.070730 (bioRxiv, 2020).

Sequences and labels used below:
B1: MutS from Pseudomonas aeruginosa (natural protein, UniProt Q9HY08 1-855, looked up)
chain: MTDLSQHTPMMQQYFKLKHQHPDQLMFYRMGDFYELFYEDAKKAAKLLDITLTARGQSGGKAIPMAGIPFHSAEGYLAKLVKLGESVAICEQIGDPATSKGPVERQVVRIITPGTVSDEALLDERRDNLLAAILGDERLFGLAVLDITSGRFSVQEIKGWETLLAELERLNPAELLIPDDWPQGLPAEKRRGVRRRAPWDFDRDSAHKSLCQQFGTQDLKGFGCQNLTLAIGAAGCLLAYAKETQRTALPHLRSLRHDRLDDTVILDGASRRNLELDINLSGGRENTLQSVVDRCQTAMASRLMSRWLNRPLRDRAVLEARQESIACLLERYRFENLQPQLKEIGDLERILARIGLRNARPRDLARLRDALAALPDLQNAMTELEAPHLQALATTIGTYPELAELLAKAIIDNPPAVIRDGGVIKTGYDAELDELQALSENAGQFLMDLEAREKARTGLPNLKVGYNRIHGYFIELPRVQAEQAPADYIRRQTLKGAERFITPELKAFEDKALSAQSRALAREKALYEELLERLIGHLAPLQDSASALAELDVLANLAERALNLDLNRPRFVEHTCLHIEQGRHPVVEQVLETPFVANDLALDADTRMLVITGPNMGGKSTYMRQTALIVLLAHIGSFVPAARCELSLVDRIFTRIGSSDDLAGGRSTFMVEMSETANILHNATDKSLVLMDEVGRGTSTFDGLSLAWAAAEDLARTRAFTLFATHYFELTVLPESQPAVANVHLNATEHNERIVFLHHVLPGPASQSYGLAVAQLAGVPAPVIQRAREHLKRLETTSLPHEMPSQQSGKPASPMQSDLFASLPHPVIDELSRINPDDISPRQALDLLYAWKMRV
B2: MutSR272A (natural protein, Pseudomonas aeruginosa, UniProt Q9HY08 1-855, looked up)
chain: MTDLSQHTPMMQQYFKLKHQHPDQLMFYRMGDFYELFYEDAKKAAKLLDITLTARGQSGGKAIPMAGIPFHSAEGYLAKLVKLGESVAICEQIGDPATSKGPVERQVVRIITPGTVSDEALLDERRDNLLAAILGDERLFGLAVLDITSGRFSVQEIKGWETLLAELERLNPAELLIPDDWPQGLPAEKRRGVRRRAPWDFDRDSAHKSLCQQFGTQDLKGFGCQNLTLAIGAAGCLLAYAKETQRTALPHLRSLRHDRLDDTVILDGASRANLELDINLSGGRENTLQSVVDRCQTAMASRLMSRWLNRPLRDRAVLEARQESIACLLERYRFENLQPQLKEIGDLERILARIGLRNARPRDLARLRDALAALPDLQNAMTELEAPHLQALATTIGTYPELAELLAKAIIDNPPAVIRDGGVIKTGYDAELDELQALSENAGQFLMDLEAREKARTGLPNLKVGYNRIHGYFIELPRVQAEQAPADYIRRQTLKGAERFITPELKAFEDKALSAQSRALAREKALYEELLERLIGHLAPLQDSASALAELDVLANLAERALNLDLNRPRFVEHTCLHIEQGRHPVVEQVLETPFVANDLALDADTRMLVITGPNMGGKSTYMRQTALIVLLAHIGSFVPAARCELSLVDRIFTRIGSSDDLAGGRSTFMVEMSETANILHNATDKSLVLMDEVGRGTSTFDGLSLAWAAAEDLARTRAFTLFATHYFELTVLPESQPAVANVHLNATEHNERIVFLHHVLPGPASQSYGLAVAQLAGVPAPVIQRAREHLKRLETTSLPHEMPSQQSGKPASPMQSDLFASLPHPVIDELSRINPDDISPRQALDLLYAWKMRV
B3: MutSR842E (natural protein, Pseudomonas aeruginosa, UniProt Q9HY08 1-855, looked up)
chain: MTDLSQHTPMMQQYFKLKHQHPDQLMFYRMGDFYELFYEDAKKAAKLLDITLTARGQSGGKAIPMAGIPFHSAEGYLAKLVKLGESVAICEQIGDPATSKGPVERQVVRIITPGTVSDEALLDERRDNLLAAILGDERLFGLAVLDITSGRFSVQEIKGWETLLAELERLNPAELLIPDDWPQGLPAEKRRGVRRRAPWDFDRDSAHKSLCQQFGTQDLKGFGCQNLTLAIGAAGCLLAYAKETQRTALPHLRSLRHDRLDDTVILDGASRRNLELDINLSGGRENTLQSVVDRCQTAMASRLMSRWLNRPLRDRAVLEARQESIACLLERYRFENLQPQLKEIGDLERILARIGLRNARPRDLARLRDALAALPDLQNAMTELEAPHLQALATTIGTYPELAELLAKAIIDNPPAVIRDGGVIKTGYDAELDELQALSENAGQFLMDLEAREKARTGLPNLKVGYNRIHGYFIELPRVQAEQAPADYIRRQTLKGAERFITPELKAFEDKALSAQSRALAREKALYEELLERLIGHLAPLQDSASALAELDVLANLAERALNLDLNRPRFVEHTCLHIEQGRHPVVEQVLETPFVANDLALDADTRMLVITGPNMGGKSTYMRQTALIVLLAHIGSFVPAARCELSLVDRIFTRIGSSDDLAGGRSTFMVEMSETANILHNATDKSLVLMDEVGRGTSTFDGLSLAWAAAEDLARTRAFTLFATHYFELTVLPESQPAVANVHLNATEHNERIVFLHHVLPGPASQSYGLAVAQLAGVPAPVIQRAREHLKRLETTSLPHEMPSQQSGKPASPMQSDLFASLPHPVIDELSRINPDDISPEQALDLLYAWKMRV
B4: MutSR272E (natural protein, Pseudomonas aeruginosa, UniProt Q9HY08 1-855, looked up)
chain: MTDLSQHTPMMQQYFKLKHQHPDQLMFYRMGDFYELFYEDAKKAAKLLDITLTARGQSGGKAIPMAGIPFHSAEGYLAKLVKLGESVAICEQIGDPATSKGPVERQVVRIITPGTVSDEALLDERRDNLLAAILGDERLFGLAVLDITSGRFSVQEIKGWETLLAELERLNPAELLIPDDWPQGLPAEKRRGVRRRAPWDFDRDSAHKSLCQQFGTQDLKGFGCQNLTLAIGAAGCLLAYAKETQRTALPHLRSLRHDRLDDTVILDGASRENLELDINLSGGRENTLQSVVDRCQTAMASRLMSRWLNRPLRDRAVLEARQESIACLLERYRFENLQPQLKEIGDLERILARIGLRNARPRDLARLRDALAALPDLQNAMTELEAPHLQALATTIGTYPELAELLAKAIIDNPPAVIRDGGVIKTGYDAELDELQALSENAGQFLMDLEAREKARTGLPNLKVGYNRIHGYFIELPRVQAEQAPADYIRRQTLKGAERFITPELKAFEDKALSAQSRALAREKALYEELLERLIGHLAPLQDSASALAELDVLANLAERALNLDLNRPRFVEHTCLHIEQGRHPVVEQVLETPFVANDLALDADTRMLVITGPNMGGKSTYMRQTALIVLLAHIGSFVPAARCELSLVDRIFTRIGSSDDLAGGRSTFMVEMSETANILHNATDKSLVLMDEVGRGTSTFDGLSLAWAAAEDLARTRAFTLFATHYFELTVLPESQPAVANVHLNATEHNERIVFLHHVLPGPASQSYGLAVAQLAGVPAPVIQRAREHLKRLETTSLPHEMPSQQSGKPASPMQSDLFASLPHPVIDELSRINPDDISPRQALDLLYAWKMRV
B5: MutSN279A (natural protein, Pseudomonas aeruginosa, UniProt Q9HY08 1-855, looked up)
chain: MTDLSQHTPMMQQYFKLKHQHPDQLMFYRMGDFYELFYEDAKKAAKLLDITLTARGQSGGKAIPMAGIPFHSAEGYLAKLVKLGESVAICEQIGDPATSKGPVERQVVRIITPGTVSDEALLDERRDNLLAAILGDERLFGLAVLDITSGRFSVQEIKGWETLLAELERLNPAELLIPDDWPQGLPAEKRRGVRRRAPWDFDRDSAHKSLCQQFGTQDLKGFGCQNLTLAIGAAGCLLAYAKETQRTALPHLRSLRHDRLDDTVILDGASRRNLELDIALSGGRENTLQSVVDRCQTAMASRLMSRWLNRPLRDRAVLEARQESIACLLERYRFENLQPQLKEIGDLERILARIGLRNARPRDLARLRDALAALPDLQNAMTELEAPHLQALATTIGTYPELAELLAKAIIDNPPAVIRDGGVIKTGYDAELDELQALSENAGQFLMDLEAREKARTGLPNLKVGYNRIHGYFIELPRVQAEQAPADYIRRQTLKGAERFITPELKAFEDKALSAQSRALAREKALYEELLERLIGHLAPLQDSASALAELDVLANLAERALNLDLNRPRFVEHTCLHIEQGRHPVVEQVLETPFVANDLALDADTRMLVITGPNMGGKSTYMRQTALIVLLAHIGSFVPAARCELSLVDRIFTRIGSSDDLAGGRSTFMVEMSETANILHNATDKSLVLMDEVGRGTSTFDGLSLAWAAAEDLARTRAFTLFATHYFELTVLPESQPAVANVHLNATEHNERIVFLHHVLPGPASQSYGLAVAQLAGVPAPVIQRAREHLKRLETTSLPHEMPSQQSGKPASPMQSDLFASLPHPVIDELSRINPDDISPRQALDLLYAWKMRV
B6: MutSF33A (natural protein, Pseudomonas aeruginosa, UniProt Q9HY08 1-855, looked up)
chain: MTDLSQHTPMMQQYFKLKHQHPDQLMFYRMGDAYELFYEDAKKAAKLLDITLTARGQSGGKAIPMAGIPFHSAEGYLAKLVKLGESVAICEQIGDPATSKGPVERQVVRIITPGTVSDEALLDERRDNLLAAILGDERLFGLAVLDITSGRFSVQEIKGWETLLAELERLNPAELLIPDDWPQGLPAEKRRGVRRRAPWDFDRDSAHKSLCQQFGTQDLKGFGCQNLTLAIGAAGCLLAYAKETQRTALPHLRSLRHDRLDDTVILDGASRRNLELDINLSGGRENTLQSVVDRCQTAMASRLMSRWLNRPLRDRAVLEARQESIACLLERYRFENLQPQLKEIGDLERILARIGLRNARPRDLARLRDALAALPDLQNAMTELEAPHLQALATTIGTYPELAELLAKAIIDNPPAVIRDGGVIKTGYDAELDELQALSENAGQFLMDLEAREKARTGLPNLKVGYNRIHGYFIELPRVQAEQAPADYIRRQTLKGAERFITPELKAFEDKALSAQSRALAREKALYEELLERLIGHLAPLQDSASALAELDVLANLAERALNLDLNRPRFVEHTCLHIEQGRHPVVEQVLETPFVANDLALDADTRMLVITGPNMGGKSTYMRQTALIVLLAHIGSFVPAARCELSLVDRIFTRIGSSDDLAGGRSTFMVEMSETANILHNATDKSLVLMDEVGRGTSTFDGLSLAWAAAEDLARTRAFTLFATHYFELTVLPESQPAVANVHLNATEHNERIVFLHHVLPGPASQSYGLAVAQLAGVPAPVIQRAREHLKRLETTSLPHEMPSQQSGKPASPMQSDLFASLPHPVIDELSRINPDDISPRQALDLLYAWKMRV

This data set concerns the molecule itself. Description: native gel or EMSA. (In EMSA bound probe runs differently from free probe, usually more slowly.)
For B1, the “stoichiometry N” value was 4. As for B2, the “stoichiometry N” value was determined as 4.

Regarding B3, the “stoichiometry N” value was 2. As for B4, the “stoichiometry N” value was determined as 4. B5: the “stoichiometry N” value turned out to be 4. Take B6: the “stoichiometry N” value was determined as 4.

As usually defined, the stoichiometry N is a count of units in the complex or per binding partner.
